For orientation: EC50 means the concentration that produces a half-maximal response. Read a high EC50 as a need for much substance.

What all share (assay): EC50 of free RNA motif oligo competing protein binding to immobilised probe
One series deals with TUBB4B (UniProt P68371). In outline: (§1)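 HEK293-FT lysate (2.5 mg protein/well) was treated with free RNA oligos (0 nM to 30 μM) for 1 h at 4°C, then with the same oligos on NHS-Sepharose beads for 30 min at 4°C. Bound proteins were quantified by label-free LC-MS/MS relative to the control. EC50 came from a four-parameter log-logistic fit, and Kd is EC50 times a protein-dependent depletion factor.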
Sequence of TUBB4B (P68371 whole entry): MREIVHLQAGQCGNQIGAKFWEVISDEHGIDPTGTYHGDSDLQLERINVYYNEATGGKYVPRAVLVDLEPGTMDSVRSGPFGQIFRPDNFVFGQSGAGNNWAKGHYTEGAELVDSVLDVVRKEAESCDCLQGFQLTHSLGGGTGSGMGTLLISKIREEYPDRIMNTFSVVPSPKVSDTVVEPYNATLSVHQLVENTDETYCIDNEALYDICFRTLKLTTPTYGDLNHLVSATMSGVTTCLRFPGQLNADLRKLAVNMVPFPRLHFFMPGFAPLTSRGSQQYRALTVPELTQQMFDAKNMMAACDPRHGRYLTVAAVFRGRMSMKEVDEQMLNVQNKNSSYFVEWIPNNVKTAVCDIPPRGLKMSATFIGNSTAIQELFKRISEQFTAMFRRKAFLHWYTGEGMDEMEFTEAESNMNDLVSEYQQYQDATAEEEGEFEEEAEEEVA

The target in a further series is T1, RBM14 (UniProt Q96PK6).
T1 sequence: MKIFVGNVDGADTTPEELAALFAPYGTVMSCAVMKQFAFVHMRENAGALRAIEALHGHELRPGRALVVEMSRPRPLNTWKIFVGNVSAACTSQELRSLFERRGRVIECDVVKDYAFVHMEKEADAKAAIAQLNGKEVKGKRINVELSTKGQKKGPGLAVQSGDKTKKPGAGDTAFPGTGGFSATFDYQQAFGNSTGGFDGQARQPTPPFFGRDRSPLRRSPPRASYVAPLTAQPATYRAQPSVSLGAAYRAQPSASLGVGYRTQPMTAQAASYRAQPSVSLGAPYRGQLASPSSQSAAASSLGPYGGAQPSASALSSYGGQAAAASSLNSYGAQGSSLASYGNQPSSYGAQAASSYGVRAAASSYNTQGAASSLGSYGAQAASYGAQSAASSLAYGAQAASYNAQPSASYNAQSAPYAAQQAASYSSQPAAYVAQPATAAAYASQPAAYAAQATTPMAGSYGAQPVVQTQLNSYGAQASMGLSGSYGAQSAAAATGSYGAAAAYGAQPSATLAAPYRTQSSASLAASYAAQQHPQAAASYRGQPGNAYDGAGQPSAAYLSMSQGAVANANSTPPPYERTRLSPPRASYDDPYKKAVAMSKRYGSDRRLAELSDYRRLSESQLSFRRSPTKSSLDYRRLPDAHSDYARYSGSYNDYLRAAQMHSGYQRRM
In outline: as §1

The target of another series is IGF2BP2 (UniProt Q9Y6M1). In outline:
as §1

The target of a further series is MRPL13 (UniProt Q9BYD1). In outline: as §1
A further series addresses MRPL22 (UniProt Q9NWU5). In outline:
as §1

Another series deals with ZNFX1 (UniProt Q9P2E3). In outline:
as §1

In another series the target is MRPS28 (UniProt Q9Y2Q9). In outline: as §1
For the next series, the target named is T2, DHX37 (UniProt Q8IY37).
T2 sequence: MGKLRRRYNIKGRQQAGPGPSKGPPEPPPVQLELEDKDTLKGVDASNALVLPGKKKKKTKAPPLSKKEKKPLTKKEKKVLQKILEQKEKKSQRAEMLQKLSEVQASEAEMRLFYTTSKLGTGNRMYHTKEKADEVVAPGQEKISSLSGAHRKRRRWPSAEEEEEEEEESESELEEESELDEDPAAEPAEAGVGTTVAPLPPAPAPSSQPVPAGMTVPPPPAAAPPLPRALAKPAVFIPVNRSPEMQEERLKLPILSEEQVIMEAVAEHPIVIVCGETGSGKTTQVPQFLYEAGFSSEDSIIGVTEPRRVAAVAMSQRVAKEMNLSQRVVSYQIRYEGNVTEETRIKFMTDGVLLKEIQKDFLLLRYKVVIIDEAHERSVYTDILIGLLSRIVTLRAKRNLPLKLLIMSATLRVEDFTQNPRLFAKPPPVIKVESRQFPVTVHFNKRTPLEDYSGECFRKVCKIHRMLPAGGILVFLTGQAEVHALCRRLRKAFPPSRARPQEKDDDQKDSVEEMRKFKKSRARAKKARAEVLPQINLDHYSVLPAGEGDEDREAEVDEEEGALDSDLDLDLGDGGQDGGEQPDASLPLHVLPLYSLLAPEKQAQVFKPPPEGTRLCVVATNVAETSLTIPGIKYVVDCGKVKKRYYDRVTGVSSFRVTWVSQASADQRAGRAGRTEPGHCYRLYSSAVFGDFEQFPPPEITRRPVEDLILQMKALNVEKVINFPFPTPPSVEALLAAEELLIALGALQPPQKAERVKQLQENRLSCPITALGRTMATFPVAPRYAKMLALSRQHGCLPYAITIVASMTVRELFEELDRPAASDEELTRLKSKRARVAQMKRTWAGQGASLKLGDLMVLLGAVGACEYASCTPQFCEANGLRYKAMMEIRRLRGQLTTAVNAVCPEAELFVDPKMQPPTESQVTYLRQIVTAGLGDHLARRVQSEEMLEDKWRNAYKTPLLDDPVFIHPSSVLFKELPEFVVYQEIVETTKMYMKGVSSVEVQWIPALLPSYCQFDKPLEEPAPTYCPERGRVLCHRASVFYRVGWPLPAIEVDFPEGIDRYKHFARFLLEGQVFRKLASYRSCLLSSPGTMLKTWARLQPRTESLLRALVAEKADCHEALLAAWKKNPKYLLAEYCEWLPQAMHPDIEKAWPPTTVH
In outline: as §1

Another series concerns the target MRPS31 (UniProt Q92665). In outline: as §1

Sequence of ZNFX1 (Q9P2E3 whole entry): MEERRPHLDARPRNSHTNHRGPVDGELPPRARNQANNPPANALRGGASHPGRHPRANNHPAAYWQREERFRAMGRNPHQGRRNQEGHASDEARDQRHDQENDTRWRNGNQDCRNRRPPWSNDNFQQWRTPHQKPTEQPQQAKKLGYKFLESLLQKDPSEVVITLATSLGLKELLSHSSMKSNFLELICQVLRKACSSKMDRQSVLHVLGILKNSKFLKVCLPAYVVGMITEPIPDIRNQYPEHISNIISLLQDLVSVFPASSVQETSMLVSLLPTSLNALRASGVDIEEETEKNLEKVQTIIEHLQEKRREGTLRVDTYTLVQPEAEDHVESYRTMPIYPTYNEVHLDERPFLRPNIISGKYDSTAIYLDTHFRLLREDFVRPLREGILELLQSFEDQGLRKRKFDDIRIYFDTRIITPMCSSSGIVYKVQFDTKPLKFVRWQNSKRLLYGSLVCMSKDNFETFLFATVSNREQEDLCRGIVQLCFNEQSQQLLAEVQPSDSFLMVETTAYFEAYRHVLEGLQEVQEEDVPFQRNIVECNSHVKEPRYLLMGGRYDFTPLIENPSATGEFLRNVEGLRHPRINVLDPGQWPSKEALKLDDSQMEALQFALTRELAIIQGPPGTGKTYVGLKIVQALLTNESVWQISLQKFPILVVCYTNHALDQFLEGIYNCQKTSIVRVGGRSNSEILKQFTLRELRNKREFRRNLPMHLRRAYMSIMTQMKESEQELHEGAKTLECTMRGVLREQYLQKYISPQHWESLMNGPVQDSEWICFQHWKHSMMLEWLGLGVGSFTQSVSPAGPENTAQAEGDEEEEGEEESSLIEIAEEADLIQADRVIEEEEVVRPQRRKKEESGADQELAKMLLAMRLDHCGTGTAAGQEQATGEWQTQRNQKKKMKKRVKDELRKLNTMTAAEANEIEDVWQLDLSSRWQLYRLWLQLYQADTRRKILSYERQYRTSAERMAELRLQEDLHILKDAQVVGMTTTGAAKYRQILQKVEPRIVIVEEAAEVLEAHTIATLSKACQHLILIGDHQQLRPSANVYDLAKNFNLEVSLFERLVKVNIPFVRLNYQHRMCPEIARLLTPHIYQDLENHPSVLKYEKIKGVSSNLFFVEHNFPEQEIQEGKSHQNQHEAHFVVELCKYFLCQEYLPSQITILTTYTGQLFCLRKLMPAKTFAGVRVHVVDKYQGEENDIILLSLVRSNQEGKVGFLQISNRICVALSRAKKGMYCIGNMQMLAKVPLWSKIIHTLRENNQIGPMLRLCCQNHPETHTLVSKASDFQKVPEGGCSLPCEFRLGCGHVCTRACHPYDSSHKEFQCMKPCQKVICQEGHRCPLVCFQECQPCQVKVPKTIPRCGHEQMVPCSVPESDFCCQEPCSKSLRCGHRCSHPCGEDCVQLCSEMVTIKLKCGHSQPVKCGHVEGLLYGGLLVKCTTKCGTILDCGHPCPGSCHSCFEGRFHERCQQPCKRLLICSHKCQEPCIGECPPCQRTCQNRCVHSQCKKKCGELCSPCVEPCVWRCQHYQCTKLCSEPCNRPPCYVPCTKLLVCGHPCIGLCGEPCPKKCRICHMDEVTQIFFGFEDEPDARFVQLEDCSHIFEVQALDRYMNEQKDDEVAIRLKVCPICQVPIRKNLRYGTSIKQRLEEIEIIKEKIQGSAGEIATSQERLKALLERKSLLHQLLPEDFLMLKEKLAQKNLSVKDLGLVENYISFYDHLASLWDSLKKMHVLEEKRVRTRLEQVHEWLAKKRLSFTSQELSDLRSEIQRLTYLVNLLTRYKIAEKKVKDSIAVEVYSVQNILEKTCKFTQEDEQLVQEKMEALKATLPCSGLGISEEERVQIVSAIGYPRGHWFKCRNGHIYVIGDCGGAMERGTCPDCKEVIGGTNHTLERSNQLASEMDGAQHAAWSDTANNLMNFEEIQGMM
Sequence of IGF2BP2 (Q9Y6M1 whole entry): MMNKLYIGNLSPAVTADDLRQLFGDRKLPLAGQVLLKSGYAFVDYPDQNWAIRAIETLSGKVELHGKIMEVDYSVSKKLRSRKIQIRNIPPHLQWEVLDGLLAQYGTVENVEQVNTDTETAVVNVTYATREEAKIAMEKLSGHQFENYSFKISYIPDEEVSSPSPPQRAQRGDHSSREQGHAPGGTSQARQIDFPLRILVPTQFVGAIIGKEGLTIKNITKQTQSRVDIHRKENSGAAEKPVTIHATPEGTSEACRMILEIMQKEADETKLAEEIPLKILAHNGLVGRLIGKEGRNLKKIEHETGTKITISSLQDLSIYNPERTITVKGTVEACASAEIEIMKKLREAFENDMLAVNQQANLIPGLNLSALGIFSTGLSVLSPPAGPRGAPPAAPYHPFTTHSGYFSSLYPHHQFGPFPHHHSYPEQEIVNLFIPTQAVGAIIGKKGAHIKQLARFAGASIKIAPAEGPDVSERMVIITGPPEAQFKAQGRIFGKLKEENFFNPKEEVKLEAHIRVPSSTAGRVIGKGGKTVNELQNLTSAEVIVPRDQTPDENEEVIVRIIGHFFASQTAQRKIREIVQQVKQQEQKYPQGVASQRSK

Turning to AAUAAA, the EC50 with TUBB4B turned out to be 1410 nM; with RBM14 it was 1980 nM.
With CUGUCCU, the EC50 is 2970 nM with IGF2BP2, 194 nM in the series with MRPL13 and 98.4 nM with MRPL22.
On to UAUUUAU, for which the EC50 in the series with ZNFX1 worked out at 436 nM; with MRPS28, 56.1 nM; in the series with DHX37 it was 4680 nM; with MRPS31 it was 93.7 nM.

Values taken from the supplement of paper PMC6379048.
